According to paper doi:10.1101/2020.04.14.041327 (bioRxiv, 2020):

Experiments:
[1] = biological target: linear M1-linked tri-ubiquitin (UniProt P0CG48); experiment: ITC
[2] = biological target: linear M1-linked tetra-ubiquitin (UniProt P0CG48); experiment: ITC
[3] = biological target: linear M1-linked tri-ubiquitin (UniProt P0CG48); experiment: SPR
[4] = biological target: linear M1-linked tetra-ubiquitin (UniProt P0CG48); experiment: SPR
[5] = biological target: the molecule itself; experiment: SEC-MALS
[6] = biological target: linear M1-linked tri-ubiquitin (UniProt P0CG48); experiment: SEC-MALS
[7] = biological target: linear M1-linked tetra-ubiquitin (UniProt P0CG48); experiment: SEC-MALS

linear M1-linked tri-ubiquitin, sequence (P0CG48 1-228): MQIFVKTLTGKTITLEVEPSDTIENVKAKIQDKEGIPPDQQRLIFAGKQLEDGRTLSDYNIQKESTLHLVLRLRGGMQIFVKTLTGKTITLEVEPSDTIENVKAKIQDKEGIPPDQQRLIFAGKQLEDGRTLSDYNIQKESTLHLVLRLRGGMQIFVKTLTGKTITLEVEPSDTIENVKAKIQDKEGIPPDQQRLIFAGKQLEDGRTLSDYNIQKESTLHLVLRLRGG
linear M1-linked tetra-ubiquitin, sequence (P0CG48 1-304): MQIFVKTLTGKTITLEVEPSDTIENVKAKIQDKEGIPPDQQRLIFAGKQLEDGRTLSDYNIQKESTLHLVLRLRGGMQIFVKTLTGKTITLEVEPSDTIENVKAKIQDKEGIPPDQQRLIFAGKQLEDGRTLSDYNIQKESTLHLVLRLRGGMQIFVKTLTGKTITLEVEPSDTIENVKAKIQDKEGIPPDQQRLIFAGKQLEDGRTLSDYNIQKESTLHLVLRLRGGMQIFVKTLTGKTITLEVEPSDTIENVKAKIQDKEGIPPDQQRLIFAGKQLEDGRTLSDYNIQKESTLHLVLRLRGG

B1: Human NEMO 258-350 C347S (NEMO UBAN domain) (domain or fragment)
chain: MQLEDLKQQLQQAEEALVAKQEVIDKLKEEAEQHKIVMETVPVLKAQADIYKADFQAERQAREKLAEKKELLQEQLEQLQREYSKLKASSQES
[1]
  Kd: 1.6 µM
  dH: -4.28 kcal/mol
[2]
  Kd: 4.1 µM
  dH: -4.49 kcal/mol
[3]
  Kd: 9.6 µM
[4]
  Kd: 6.4 µM
[5]
  binding result: binds
[6]
  stoichiometry N: 2 NEMO monomers per poly-ubiquitin
[7]
  stoichiometry N: 2 NEMO monomers per poly-ubiquitin
